Measured values from US20230242902A1, “A HIGHLY ERROR-PRONE […] R[…] FOR TARGETED CONTINUOUS EVOLUTION IN VIVO” (The Regents of the University of California, priority 2017, published 2023).
Where a chain is given by its changes, count along the chain named. Names and notes keep the numbering of the source.

B1: WT: wild-type Kluyveromyces lactis DNA polymerase TP-DNAP2, SEQ ID NO:13 (protein, listed as Kluyveromyces lactis)
chain: MNDELAFLNSQIDDYSDDIEFLRTEVFRINRYSKSIYSLMKNSSKEAIKETIEFNKYGQEIHSKIKEKEISLIEAIKLMEKKYKYLRSLNKTKDKSKKKKIHTKDIETLKTIYKTKADFDIRNFKNAETFTYENYSLLIPSEKELIDLIPEIEEDYSYYFYVSLTITGPTIFGGVTRKVPIIDTYGDINKDFYNKIKENITKVLDRVPFYEEKESEIICKKVLITLTVNKWESIDKWYKNVKSKSKKFKDFTLFLASDTSKNCVQQCVEYLGGKWNTNYSLEKMIPQQKIVTYIPLLMDIQYVQSMEDLISDFDEPNTDCKNIARLLKWNGHMGVITKIDKDVKINRIQRKRIIDVENKEVKEVFFDIESFSDETKHQIPYLICWSYLGELYYRTGKNCIKEFVEEILSYNVDIILYAWYGSGYDYQHVLPYMKSKCIKDKYIIKNNMITYGELYYENAIIYLKDPYLFILTSLDKASKAFNVINKGEFPHSIIHSWEDLNKILPNWVKIQKRMIEYKDDNKLNIYYKNIEIFENDRNYNTILENAIEYCKVDVLAMEKVWIKFKKLLEKNLNITVSVKTFTLSQLSMKIMESKLPKYVKLYVPTLEEYSKIRNAIYGGRVISKNGIYEENIVYADVVSLYPSAMKLLKHSYGKPKLVDYIDFEKHGIYRVTLLNKHDQEPKNYLNFVPRRINRKLTWEWFKIHEGWYHTYDLIIAKSEGFDIYCHEGFEYPEKDYIFNDFIDTLYSMKETHTACSCEEQPCPIRMVAKIALNGGGYGKFVQKPIDKEIYIVKRDVVAGECDKLQENENGEICIGKRLVKRPLFYNLDSENYDKMIIEKEDEPIYSTQCGISILSASRYRLYKLCKQFENIDIIYSDTDSIFVKQKSVDWELFKSKCGSELGQLDSTIDDTKNAIISKMYIGGAKMYAFEYLNNKNKLITKLHCKGVPNYMLSLNQFKYLMESPDNTIAYKFEIIRRKLVNVITKDLIKDIKQT
B2: Y424Q: TP-DNAP2 variant (protein, listed as Kluyveromyces lactis)
chain: B1 chain with Y424Q
B3: S370Q: TP-DNAP2 variant (protein, listed as Kluyveromyces lactis)
chain: B1 chain with S370Q
B4: TP-DNAP1-4-2: TP-DNAP1 variant (L477V, L640Y, I777K, W814N), encoded by SEQ ID NO:11 (protein, listed as Kluyveromyces lactis)
chain: MDYKDKALNDLRNVYADFDSLPLDFRQILIKDRATLLQKEDVEKKILERQEDAKKYAEYLKQSEIPERISLPNIKRHKGVSISFEETSEDMVLEPRPFIFDGLNIRCFRRETIFSLKNKILNMVKESSSFKNVSRQSVSFMYFKIFNKGKVIASTKSVNIYEDKIDERLEDLCNNFDDVLKKIIDVTYGYESLFVSETYSYVIFYAKSIYFPQPRCVNNWGNNIPNILTFDSFKLFTANKNNVSCIKQCSRFLWQKDFNTLEEMIEYKNGNICIVTPQLHINDVRDIKSFNDIRLYSESPIKTFSVIDNTITYLFYFKEHLGVIFNITKSRHDRRVTKFSPLSKFSDVKNITVCFDIESYFDPEKESNQVNIPFICCASIIYNKVIGNIVDFEGRDCVAQMIEYVVDICGELNISSVELIAHNGGGYDFHYILSSMYNPAAIKNILIRNNSFISFNFAHDGVKFSVKDSYSFLLCSVANASKAFLNEETFKKTDFPHHDLKTADDLYKVYKEWSSVNTEINHVVEKEKLLITSEHIVNFTKNDKSKTLIEWSKDYCRNDVLVLSKVWLEFKNAVEDIFNCELVDQTMTLAGLSYKLFQANMPFDVELRHPNKEDYFNMREALIGGRCISVNGIYKDVLCYDVKSLYPASMAFYDQPYGSFKRVSSRPKDELGIYYVRVTPNRNNKSNFFPIRSHNKITYNNFEESTYIAWYTNVDIDIGLSEGHNIEYIPFDSYGNIGYSWSKKGKIFEKYIKDVLYKLKIKYEKQNNKVKRNVIKKIMNSLWGKFAQKWVNFEYFIKSEDDIDFESEEAYKINDTDFMLIKKIKESTYSSKPIQNGVFTLSWARYHMKSIWDAGAKEGAECIYSDTDSIFVHKEHFKKNAKFMLNGLKVPIIGSEVGQLELECEFDKLLCAGKKQYMGFYTYFQDGKPCIKEKKRFKGIPSNYIIPELYAHLLSGADKEAKIQFLKFRREWGSVKGYIENKTVKAT
B5: w.t.: wild-type Kluyveromyces lactis DNA polymerase TP-DNAP1, SEQ ID NO:1 (protein, listed as Kluyveromyces lactis)
chain: B4 chain with V477L, Y640L, K777I, N814W

Tests used:
[1] = system: genomic URA3 locus; assay: Fluctuation tests of genomically encoded URA3 in the presence of TP-DNAP2 variants (AR-Y436); format: cell-based, S. cerevisiae; settings: for per-base substitution rate at genomic URA3 locus: TP-DNAP2 in trans, AR-Y436, (95% C.I.); for host genomic mutation rate: error-prone TP-DNAP2 variant present
Experimental: Fluctuation tests using genomically encoded URA3 were performed in the presence of TP-DNAP2 variants to determine the genomic per-base substitution rates, similarly to previously described protocols (Lang and Murray, 2008, Genetics, 178:67-82). AR-Y292 derived strains harboring the appropriate TP-DNAP2 variant encoded on a CEN6/ARS4 vector (with a HIS3 marker) were grown in liquid SC medium lacking uracil and histidine until saturation. Each strain was diluted 1:5,000 into SC medium lacking histidine and aliquoted into 48 replicates of 200 μL each. Cultures were grown for 48 hours at 30° C. to reach saturation. Saturated cultures were washed with 400 μL 0.9% NaCl and resuspended in 420 μL 0.9% NaCl. 400 μL from each replicate was spot plated on pre-dried solid SC medium lacking histidine and supplemented with 5-FOA (1 g/L). The residual 20 μL from six replicates were pooled, diluted, and plated on solid YPD medium to determine cell titers. Plates were allowed to dry before incubation at 30° C. Colonies were counted on titer plates after 2 days, and on spot plates after 5 days of growth. The expected number of mutants (m) was calculated using the MSS maximum likelihood estimator method via the FALCOR tool, and corrected for partial plating, as described above. To determine per-base substitution rates, the corrected m was normalized to the average cell titer, the URA3 copy number (1 in haploid yeast), and the target size for 5-FOA resistance via substitutions in URA3 (104 bp). 95% confidence intervals were similarly scaled.
Like p1 replication by TP-DNAP1, p2 replication by TP-DNAP2 occurs in the cytoplasm via a protein-primed mechanism, making it likely that p2 replication is orthogonal to host genome replication. To test this, CEN6/ARS4 vectors lacking TP-DNAP2, or encoding codon optimized versions of TP-DNAP2^WT, TP-DNAP2^S370Q, or TP-DNAP2^Y424Q were transformed into AR-Y436. AR-Y436 contains wt p1 and p2, as well as an intact URA3 locus in the host genome. Genomic per-base substitution rates were determined via fluctuation tests based on the frequency of 5-FOA resistant clones arising from mutations in the genomic URA3 locus, as previously described (Ravikumar et al., 2014, Nature Chemical Biology, 10:175-177; Lang and Murray, 2008, Genetics, 178:67-82). The substitution rich spectrum of URA3-disabling mutations makes this assay ideal for detecting whether the elevated substitution rate of TP-DNAP2^S370Q or TP-DNAP2^Y424Q contributes to genomic mutation. No increase in the host genomic mutation rate was observed when error-prone variants of TP-DNAP2^S370Q and TP-DNAP2^Y424Q were present (Table 8).

[2] = system: p1-encoded leu2*; assay: p1 leu2* fluctuation tests in AR-Y304 (p1 mutation rate reporter strain, mutual orthogonality); format: cell-based, S. cerevisiae; settings: for change in p1 mutation rate by TP-DNAP2: AR-Y304, noncognate polymerase in trans
Excerpt: Strains for testing mutual orthogonality were generated by transforming a panel of CEN6/ARS4 vectors encoding TP-DNAP1 or TP-DNAP2 variants into two base strains, AR-Y304 and GA-Y021. AR-Y304 (Ravikumar et al., 2014, Nature Chemical Biology, 10:175-177) contains recombinant p1 encoding mKate2, URA3 and leu2* without disturbing the native TP-DNAP1 ORF. Similarly, GA-Y021 encodes recombinant p2 that replaces ORF1 with mKate2, URA3 and leu2* without disturbing the native TP-DNAP2 ORF.
To precisely measure p1 and p2 per-base substitution mutation rates, several modifications were made to the small-scale protocol. First, 36 replicates were performed for reconfirmation of candidate TP-DNAP2 mutators, and 48 replicates for genomic and mutual orthogonality experiments. Titers were also determined for each strain after spot plating by pooling the residual volume from 4 replicates and plating dilutions on YPD. The expected number of LEU2 functional mutants (m) was determined by the Ma-Sandri-Sarkar maximum likelihood estimator (as calculated by the FALCOR tool and corrected for partial plating (Foster, 2006, Methods Enzymol, 409:195-213; Sarkar et al., 1992, Genetica, 85:173-179; Hall et al., 2009, Bioinformatics, 25:1564-1565). The mean mKate2 fluorescence was determined from 50,000 event counts on Attune™ NxT Flow Cytometer and converted to p2 copy number by using a calibration curve. To determine per-base substitution rates, the corrected m was normalized to the average cell titer, the p2 copy number, and the target size for functional leu2* reversion (2.33 bp). 95% confidence intervals were similarly scaled.
To test whether the replication mechanisms of p1 and p2 are mutually orthogonal in vivo, p1 and p2 mutation rates were measured in the presence of a panel of TP-DNAP1 and TP-DNAP2 variants with varying mutation rates. Changes in p1 or p2 mutation rate induced by TP-DNAP variants would therefore signal a degree of cross-replication between TP-DNAP1/p1 and TP-DNAP2/p2, if any. A panel of six polymerases was introduced on CEN6/ARS4 vectors into two separate base strains, AR-Y304 (p1 mutation rate reporter strain) and GA-Y021 (p2 mutation rate reporter strain), encoding mKate2, URA3, and leu2* on either p1 or p2, respectively. Included in this panel were TP-DNAP1^WT and two error-prone TP-DNAP1 variants found in previous screens: TP-DNAP1^1777K, L900S and TP-DNAP1^L477V, L640Y, I777K, W814N. Also included were TP-DNAP2^WT and the error-prone TP-DNAP2^S370Q and TP-DNAP2^Y424Q variants found in this work. In AR-Y304 and GA-Y021, both p1 and p2 still encode their native wt TP-DNAP's. Any contribution to replication by a third TP-DNAP encoded in trans is monitored by detecting changes in linear plasmid mutation rate. Importantly, these experiments afford each DNAP an opportunity to replicate its native plasmid and lose its attached TP, becoming “spent” and perhaps more likely to replicate its noncognate linear plasmid through DNAP exchange (Klassen and Meinhardt, 2007, Linear Protein-Primed Replicating Plasmids in Eukaryotic Microbes, in Microbial Linear Plasmids, pp 1 87-226. Springer, Berlin, Heidelberg). The presence of TP-DNAP1^WT or TP-DNAP2^WT in trans had no effect on their noncognate linear plasmids' mutation rate. […] Likewise, p1 mutation rate was unaltered in the presence of mutagenic TP-DNAP2^S370Q and TP-DNAP2^Y424Q, which increased p2 mutation rate by 29- and 16-fold, respectively (FIG. 9). Thus, TP-DNAP1 replicates p1 with at least 870-fold specificity over p2, while TP-DNAP2 targets p2 with at least 29-fold specificity over p1. The level of mutual orthogonality measured here is limited by the error-rates of DNAPs used, especially that of TP-DNAP2 variants.

Molecule | per-base substitution rate at genomic URA3 locus [1] | change in p1 mutation rate by TP-DNAP2 [2] | host genomic mutation rate [1] | fold increase of p1 mutation rate ([2]; AR-Y304, polymerase in trans) | specificity for p1 over p2 [2]
B1 | 2.2 (1.2-3.4) ×10^−10 | no effect | – | – | –
B2 | 1.8 (1.0-2.9) ×10^−10 | unaltered | No increase | – | –
B3 | 1.8 (1.0-2.8) ×10^−10 | unaltered | No increase | – | –
B4 | – | – | – | 870 fold | –
B5 | – | – | – | – | at least 870 fold
